Laboratory results as given in patent US20230203146A1 (Boehringer Ingelheim, published 2023).
Read-outs that look alike come from different tables or passages of the source.

Legend:
[1] = molecular target: T1, N-terminally FLAG-tagged mouse Ang2 (HEK293T conditioned medium) (mouse, UniProt O35608 19-496); assay: competition ELISA, FLAG-mAng2 on coated mTie2-Fc
T1 construct: may be a nucleotide entry; also called mAng2; FLAG-mAng2
T1 sequence: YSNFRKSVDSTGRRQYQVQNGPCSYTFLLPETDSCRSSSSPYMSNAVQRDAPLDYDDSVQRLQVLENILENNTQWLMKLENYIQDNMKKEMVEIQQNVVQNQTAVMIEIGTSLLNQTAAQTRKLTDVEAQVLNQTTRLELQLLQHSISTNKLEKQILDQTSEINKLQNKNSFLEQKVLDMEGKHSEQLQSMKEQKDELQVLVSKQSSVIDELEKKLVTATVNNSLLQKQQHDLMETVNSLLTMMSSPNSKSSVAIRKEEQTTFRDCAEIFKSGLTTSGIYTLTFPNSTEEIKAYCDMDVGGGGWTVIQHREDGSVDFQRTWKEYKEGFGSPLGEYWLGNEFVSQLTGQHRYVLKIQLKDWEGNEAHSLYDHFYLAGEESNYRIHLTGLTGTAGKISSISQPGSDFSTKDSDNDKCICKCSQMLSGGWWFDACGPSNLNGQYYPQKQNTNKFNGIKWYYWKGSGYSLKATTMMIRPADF
Protocol: (§1) In brief, 2 μg/mL of recombinant mouse Tie2-Fc or cyno Tie2-Fc is coated overnight at 4° C. in a 96-well MaxiSorp plate (Nunc, Wiesbaden, Germany). Coated wells are blocked with a 1% casein solution.

[2] = molecular target: T1, N-terminally FLAG-tagged mouse Ang2 …; assay: competition ELISA, periplasmic extract, FLAG-mAng2 on mTie2/Fc
Protocol: In brief, human Tie2/Fc chimera (R&D Systems, Minneapolis, Minn., USA) is biotinylated using N-hydroxysulfosuccinimide ester of biotin (Thermo Fisher Scientific, Rockford, Ill., USA). […] To this mixture, the Acceptor beads and 0.3 nM biotinylated human Tie2/Fc chimeras are added and further incubated for 2 hours at room temperature. Finally, streptavidin conjugated Donor beads (Perkin Elmer, Waltham, Mass., US) are added and the mixture is incubated for an additional 2 hours at room temperature. Assay buffer is PBS+0.03% Tween-20+0.1% BSA. Fluorescence is measured using the Envision Multilabel Plate reader (Perkin Elmer, Waltham, Mass., USA) using an excitation wavelength of 680 nm and an emission wavelength of 520 nm. […] In brief, human or mouse Tie2/Fc chimera (R&D Systems, Minneapolis, Minn., USA) are immobilized at 2 μg/mL overnight at 4° C. in a 96-well MaxiSorp plate (Nunc, Wiesbaden, Germany). Wells are blocked with a 1% casein solution. […] This mixture is added to the Tie2/Fc coated well and incubated for 2 hours at room temperature. Residual binding of Ang is detected using HRP-conjugated anti-FLAG M2 antibody (Sigma, St Louis, Mo., USA).

[3] = molecular target: T1, N-terminally FLAG-tagged mouse Ang2 …; assay: competition ELISA, FLAG-mAng2 on coated mTie2-Fc; remark: listed apart in the source
Protocol: as §1

[4] = molecular target: T2, recombinant cynomolgus Ang2-FLD (cynomolgus); assay: SPR (Biacore T100), binder on CM5 chip, Ang2-FLD as analyte
T2 construct: domain: FLD; also called cyno Ang2-FLD
Protocol: (§2) In brief, VHH and benchmark compounds are immobilized on a CM5 chip via amine coupling. […] Ang2-FLD species are allowed to associate for 2 min and to dissociate for 20 min at a flow rate of 45 μL/min. In between injections, the surfaces are regenerated with a 10 sec pulse of 25 mM NaOH and 60 sec stabilization period. Association/dissociation data are evaluated by fitting a 1:1 interaction model (Langmuir binding). The affinity constant KD is calculated from resulting association and dissociation rate constants kₐ and kd and are depicted in Table 8.

[5] = molecular target: T3, recombinant human Ang2-FLD (human, UniProt O15123 275-496, limits assumed); assay: as above
T3 construct: domain: FLD; not used
T3 sequence (looked up): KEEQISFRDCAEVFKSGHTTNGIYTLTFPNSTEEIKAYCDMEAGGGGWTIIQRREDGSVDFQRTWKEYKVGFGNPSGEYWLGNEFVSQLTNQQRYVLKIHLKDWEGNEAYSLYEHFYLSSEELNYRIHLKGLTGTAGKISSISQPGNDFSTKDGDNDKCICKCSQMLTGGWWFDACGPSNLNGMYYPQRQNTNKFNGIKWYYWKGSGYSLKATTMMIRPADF
Protocol: as §2

[6] = molecular target: T4, recombinant mouse Ang2-FLD (mouse, UniProt O35608 275-496, limits assumed); assay: as above
T4 construct: domain: FLD
T4 sequence (looked up): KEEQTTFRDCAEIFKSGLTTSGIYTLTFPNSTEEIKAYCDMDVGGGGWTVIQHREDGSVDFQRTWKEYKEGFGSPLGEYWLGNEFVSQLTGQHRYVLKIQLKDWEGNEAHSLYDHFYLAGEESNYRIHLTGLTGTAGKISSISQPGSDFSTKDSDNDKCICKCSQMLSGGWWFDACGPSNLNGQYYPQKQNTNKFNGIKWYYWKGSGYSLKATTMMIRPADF
Protocol: as §2

[7] = molecular target: T5, N-terminally FLAG-tagged cynomolgus Ang2 (HEK293T conditioned medium) (cynomolgus, UniProt O15123 19-496 (human entry), limits assumed); assay: competition ELISA, FLAG-cAng2 on coated cTie2-Fc
T5 construct: may be a nucleotide entry; also called cAng2; FLAG-cAng2
T5 chain: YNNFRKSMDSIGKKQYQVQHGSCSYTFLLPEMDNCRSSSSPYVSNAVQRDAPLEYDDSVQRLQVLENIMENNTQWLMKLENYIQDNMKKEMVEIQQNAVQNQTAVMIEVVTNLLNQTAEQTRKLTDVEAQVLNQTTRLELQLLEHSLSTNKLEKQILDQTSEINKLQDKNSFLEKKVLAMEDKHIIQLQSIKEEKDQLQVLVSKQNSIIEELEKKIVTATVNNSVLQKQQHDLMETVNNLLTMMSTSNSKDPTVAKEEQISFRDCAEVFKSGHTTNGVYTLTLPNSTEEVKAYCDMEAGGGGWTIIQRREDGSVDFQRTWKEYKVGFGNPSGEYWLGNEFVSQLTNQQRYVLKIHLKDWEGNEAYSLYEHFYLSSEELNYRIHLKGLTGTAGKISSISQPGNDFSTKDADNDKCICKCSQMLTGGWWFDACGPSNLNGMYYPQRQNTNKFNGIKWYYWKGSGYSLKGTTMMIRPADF
Protocol: as §1

Binder	IC50 [1]	% inh [2]	IC50 [3]	Kd [4]	koff [4]	kon [4]	Kd [5]	koff [5]	kon [5]	Kd [6]	koff [6]	kon [6]	IC50 [7]
VHH 15H04 (VHH, also called 015H04; not shown: C-terminal c-myc tag and His6 tag) VHH: EVQLVESGGGLVQAGGSLGLSCAASERTLPSYVMGWFRQAPGKELEFVAGISWSSGRTYYTDSVKGRFTISRDAAENTWYLQMNSLKPEDTAVYYCASNSVSEPTLHTWQYEASYDYWGQGTQVTVSS	125 nM	38%											
VHH 22G11 (VHH, Tested as periplasmic extract; also called 022G11; not shown: C-terminal c-myc tag and His6 tag) VHH: EVQLVESGGGLVQAGGSLRLSCAVSGFTFDDYAIGWFRQAPGKEREGVSCISRSDGSPYYADSVKGRFTISSDNAKGTVYLQMSSLKPEDTAVYYCAASWSGAYYSGTYYCDRLYEYDAWGQGTQVTVSS		98%											
VHH 24B05 (VHH, also called 024B05; not shown: C-terminal c-myc tag and His6 tag) VHH: EVQLVESGGGLVQPGGSLRLSCAASGFTLDYYAIGWFRQAPGKEWEGVSCISSSDGSTYYADSVKGRFTISRDNAKNTVYLQMNSLKPEDTAVYYCATDSIVCGSYYGMDYWGKGTQVTVSS	1.5 nM	98%	1.1 nM	0.59 nM	0.0024 s⁻¹	4.1e+06 M⁻¹ s⁻¹	0.96 nM	0.0025 s⁻¹	2.6e+06 M⁻¹ s⁻¹	1.7 nM	0.0029 s⁻¹	1.7e+06 M⁻¹ s⁻¹	2.1 nM
VHH 11B07 (VHH, also called 011B07; not shown: C-terminal c-myc tag and His6 tag) VHH: EVQLVESGGGLVQVGDSLRLSCAASGRTFSTYLMVGWFRQAPGKEREFAAGIWSSGDTAYADSVRGRFTISRDNAKNTVYLQMNSLKTEDTAVYYCAGSYDGNYYIPGFYKDWGQGTQVTVSS	21 nM		39.7 nM	6.1 nM	0.073 s⁻¹	1.2e+07 M⁻¹ s⁻¹	6.7 nM	0.062 s⁻¹	9.2e+06 M⁻¹ s⁻¹	29 nM	0.14 s⁻¹	4.8e+06 M⁻¹ s⁻¹	24.8 nM
VHH 22C07 (VHH, also called 022C07; not shown: C-terminal c-myc tag and His6 tag) VHH: EVQLVESGGGLVQAGGSLRLSCAASGFTFDDYAIGWFRQAPGKEREGVSCISSSDGSTYYADSVKGRFTISSDNAKNTVYLQMNSLKPEDTAVYYCAADFIISSKRLCLDLFGSRGQGTQVTVSS	13.6 nM	82%											
VHH 25F01 (VHH, also called 025F01; not shown: C-terminal c-myc tag and His6 tag) VHH: EVQLVESGGGLVQAGGSLRLSCAVSGLPFDDYVIGWFRQAPGKEREGVSCISSSDGSTYYADSVKGRFTISSDNAKNTVYLQMNSLKPEDTAAYYCAAGGPRINIATMTCSHDEYEYDYWGQGTQVTVSS	13.3 nM	42%											
